From patent publication US20130086703

Biological target: T1, human Keratin 17
T1 chain: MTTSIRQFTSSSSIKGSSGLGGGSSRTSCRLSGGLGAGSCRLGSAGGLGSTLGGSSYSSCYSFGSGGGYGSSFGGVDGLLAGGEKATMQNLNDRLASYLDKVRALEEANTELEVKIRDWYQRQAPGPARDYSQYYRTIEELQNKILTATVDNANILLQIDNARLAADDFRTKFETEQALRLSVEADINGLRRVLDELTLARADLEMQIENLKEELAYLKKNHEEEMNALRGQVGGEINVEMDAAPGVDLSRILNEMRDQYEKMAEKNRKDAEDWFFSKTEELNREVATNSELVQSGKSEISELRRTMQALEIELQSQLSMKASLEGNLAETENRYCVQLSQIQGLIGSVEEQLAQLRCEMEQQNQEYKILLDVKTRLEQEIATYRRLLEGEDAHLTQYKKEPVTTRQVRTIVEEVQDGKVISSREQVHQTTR

B1: RgpB (protein)
chain: YTPVEEKENGRMIVIVPKKYEEDIEDFVDWKNQRGLRTEVKVAEDIASPVTANAIQQFVKQEYEKEGNDLTYVLLVGDHKDIPAKITPGIKSDQVYGQIVGNDHYNEVFIGRFSCESKEDLKTQIDRTIHYERNITTEDKWLGQALCIASAEGGPSADNGESDIQHENIIANLLTQYGYTKIIKCYDPGVTPKNIIDAFNGGISLANYTGHGSETAWGTSHFGTTHVKQLTNSNQLPFIFDVACVNGDFLYNVPCFAEALMRAQKDGKPTGTVAIIASTINQSWASPMRGQDEMNEILCEKHPNNIKRTFGGVTMNGMFAMVEKYKKDGEKMLDTWTVFGDPSLLVRTLVPTKMQVTAPANISASAQTFEVACDYNGAIATLSDDGDMVGTAIVKDGKAIIKLNESIADETNLTLTVVGYNKVTVIKDVKVEG
- enzymatic degradation products detected by mass spectrometry (on spot profiling): peptides consisting of the amino acid sequences shown by SEQ ID NOs: 6-10 (peptides 8-12) were newly identified as RgpB degradation products of human Keratin 17
